Test results as given in patent publication US20210063414A1, “METHODS FOR PREVENTING AND/OR TREATING BONE LOSS CONDITIONS BY MODULATING IRISIN” (Dana-Farber Cancer Institute, Inc., priority 2018, published 2021).

What was measured:
Experiment in all cases: Crosslinking/co-immunoprecipitation/mass spectrometry (TMT quantitative proteomics) to identify irisin receptors
Type in all cases: binding
[1] = biological target: T1, MLO-Y4 cell surface proteins (Mus musculus, UniProt Q8BJQ9); settings: co-precipitated protein Csgalnact1 (CGAT1_MOUSE)
T1 construct: endogenous in cells; host or cells: MLO-Y4
T1 sequence (Q8BJQ9 1-530): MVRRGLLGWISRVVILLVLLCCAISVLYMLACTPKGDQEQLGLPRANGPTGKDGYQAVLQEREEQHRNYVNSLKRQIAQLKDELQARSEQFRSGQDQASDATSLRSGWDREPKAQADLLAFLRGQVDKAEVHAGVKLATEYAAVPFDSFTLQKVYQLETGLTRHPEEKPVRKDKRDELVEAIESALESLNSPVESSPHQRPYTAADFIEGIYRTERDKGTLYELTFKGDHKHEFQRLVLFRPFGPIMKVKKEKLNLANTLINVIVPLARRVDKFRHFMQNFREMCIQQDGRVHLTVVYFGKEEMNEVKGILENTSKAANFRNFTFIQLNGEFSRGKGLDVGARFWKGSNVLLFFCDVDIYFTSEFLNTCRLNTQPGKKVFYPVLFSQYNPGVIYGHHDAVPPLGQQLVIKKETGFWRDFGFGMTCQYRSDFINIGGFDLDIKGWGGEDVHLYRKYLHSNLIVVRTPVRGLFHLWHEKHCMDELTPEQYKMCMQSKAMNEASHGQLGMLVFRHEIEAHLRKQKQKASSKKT
Method: (§1) MLO-Y4 cells were seeded on 30×150 mm type-I collagen coated dishes as described in cell culture experiment. At 60% cell density, medium was switched to FreeStyle™ 293 Expression medium. After 4 hours incubation, the cells were chilled on ice for 10 minutes, followed by treatment of 10 nM his-tag irisin or his-tag adipsin for 20 minutes. The cells were then incubated with 1.5 mM DTSSP for 30 minutes on ice to do cross-linking, after washing with 15 ml cold PBS twice. The cross-linking was quenched by addition of a final concentration of 20 mM Tris-pH 7.5. The cells were then harvested and homogenized in 1 ml RIPA buffer containing proteaseinhibitor cocktailand phosphatase-inhibitor cocktail. Whole-cell lysates were homogenized by 10 times passages through a 22G needle fitted to a 3 ml syringe. Homogenized samples were rotated gently in cold room for 20 minutes followed by 15,000×g centrifugation for 10 minutes. After addition of a final concentration of 10 mM imidazole, supernatants were incubated with 100 μl Ni-NTA agarose for 1 hour. After centrifugation at 500×g for 1 minute, the supernatants were aspirated and 1 ml cold RIPA buffer containing 10 mM imidazole were added to the agarose. After 10 minutes rotation in cold room, the supernatants were aspirated and 1 ml cold RIPA buffer containing 30 mM imidazole were added to the agarose. After repeating the washing 3 times, 0.8 ml RIPA buffer containing 250 mM imidazole was added and the agarose was gently rotated in a cold room for 20 minutes. After centrifugation at 1000×g for 2 minutes, the supernatants were transferred to 1.5 ml tube and incubated with 100 μl 0.2% sodium deoxycholate and 100 μl 10% trichloroacetic acid in ice for 1 hour. After centrifugation at 12,000×g for 10 minutes at 4° C., the supernatants were removed and 1 ml cold acetone was added to the pellets followed by vortexing for 10 seconds. After one more washing with cold acetone, the pellets were dried at 37° C., and 39 μl PBS and 13 μl 4×NuPAGE LDS were added to the pellets with a final concentration of 5 mM DTT. Solubilized proteins were incubated at 65° C. for 20 minutes followed by incubation with a final concentration of 14 mM iodoacetamide for 45 minutes in the dark. 38 μl samples were loaded to 4-12% gradient SDS-PAGE for separation followed by Coomassie Blue staining. The gels were submitted to quantitative proteomics.
(§2) For in-gel digestions, gels were stained with Coomassie Blue and were excised into 8 equal segments for control and irisin lanes. Gel pieces were destained and dehydrated with 100% acetonitrile, vacuumed dried, and digested in 25 mM HEPES (pH 8.5) with 500 ng sequencing grade trypsin (Promega) and incubated for an overnight at 37° C. (Shevchenko et al. (1996) Anal. Chem. 68:850-858). Digests were treated with 1% formic acid and purified using C18 Stage-Tips as previously described (Rappsilber et al. (2007) Nat. Protoc. 2:1896-1906). Peptides were eluted with 70% acetonitrile and 1% formic acid, then dried using a speedvac. Isobaric labeling of digested peptides was accomplished using 6-plex tandem mass tag (TMT) reagents (Thermo Fisher Scientific, Rockford, Ill.). Reagents, 5.0 mg, were dissolved in 252 μl acetonitrile (ACN) and 5 μl of the solution was added to the digested peptides dissolved in 25 μl of 200 mM HEPES, pH 8.5. After 1 hour at room temperature, the reaction was quenched by adding 1 μl of 5% hydroxylamine. Labeled peptides were combined and acidified prior to C18 Stage-Tips desalting.
(§3) All LC-MS/MS experiments were performed on an Orbitrap Fusion™ Lumos mass spectrometer (Thermo Fisher Scientific, San Jose, Calif., USA) coupled with a Proxeon EASY-nLC™ 1200 LC pump (Thermo Fisher Scientific). Peptides were separated on a 100 μm inner diameter microcapillary column packed with 35 cm of Accucore™ C18 resin (1.8 μm, 100 Å, Thermo Fisher Scientific). […]

[2] = biological target: T2, MLO-Y4 cell surface proteins (Mus musculus, UniProt Q8VHN7); settings: co-precipitated protein Gpr98 (GPR98_MOUSE)
T2 construct: endogenous in cells; host or cells: MLO-Y4
Method: as §1, §2, §3

[3] = biological target: T3, MLO-Y4 cell surface proteins (Mus musculus, UniProt Q6ZPE2); settings: co-precipitated protein Sbf1 (MTMR5_MOUSE)
T3 construct: endogenous in cells; host or cells: MLO-Y4
Method: as §1, §2, §3

[4] = biological target: T4, MLO-Y4 cell surface proteins (Mus musculus, UniProt Q9CY64); settings: co-precipitated protein Blvra (BIEA_MOUSE)
T4 construct: endogenous in cells; host or cells: MLO-Y4
T4 sequence (Q9CY64 3-295): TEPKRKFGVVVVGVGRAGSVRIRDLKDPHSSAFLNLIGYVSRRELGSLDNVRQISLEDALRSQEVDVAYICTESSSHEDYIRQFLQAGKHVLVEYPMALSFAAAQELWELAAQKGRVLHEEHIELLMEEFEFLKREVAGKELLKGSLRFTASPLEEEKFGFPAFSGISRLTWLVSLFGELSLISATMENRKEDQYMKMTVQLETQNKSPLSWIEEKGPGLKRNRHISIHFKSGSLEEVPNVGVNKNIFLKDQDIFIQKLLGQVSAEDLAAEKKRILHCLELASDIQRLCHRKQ
Method: as §1, §2, §3

T3 sequence (Q6ZPE2 whole entry): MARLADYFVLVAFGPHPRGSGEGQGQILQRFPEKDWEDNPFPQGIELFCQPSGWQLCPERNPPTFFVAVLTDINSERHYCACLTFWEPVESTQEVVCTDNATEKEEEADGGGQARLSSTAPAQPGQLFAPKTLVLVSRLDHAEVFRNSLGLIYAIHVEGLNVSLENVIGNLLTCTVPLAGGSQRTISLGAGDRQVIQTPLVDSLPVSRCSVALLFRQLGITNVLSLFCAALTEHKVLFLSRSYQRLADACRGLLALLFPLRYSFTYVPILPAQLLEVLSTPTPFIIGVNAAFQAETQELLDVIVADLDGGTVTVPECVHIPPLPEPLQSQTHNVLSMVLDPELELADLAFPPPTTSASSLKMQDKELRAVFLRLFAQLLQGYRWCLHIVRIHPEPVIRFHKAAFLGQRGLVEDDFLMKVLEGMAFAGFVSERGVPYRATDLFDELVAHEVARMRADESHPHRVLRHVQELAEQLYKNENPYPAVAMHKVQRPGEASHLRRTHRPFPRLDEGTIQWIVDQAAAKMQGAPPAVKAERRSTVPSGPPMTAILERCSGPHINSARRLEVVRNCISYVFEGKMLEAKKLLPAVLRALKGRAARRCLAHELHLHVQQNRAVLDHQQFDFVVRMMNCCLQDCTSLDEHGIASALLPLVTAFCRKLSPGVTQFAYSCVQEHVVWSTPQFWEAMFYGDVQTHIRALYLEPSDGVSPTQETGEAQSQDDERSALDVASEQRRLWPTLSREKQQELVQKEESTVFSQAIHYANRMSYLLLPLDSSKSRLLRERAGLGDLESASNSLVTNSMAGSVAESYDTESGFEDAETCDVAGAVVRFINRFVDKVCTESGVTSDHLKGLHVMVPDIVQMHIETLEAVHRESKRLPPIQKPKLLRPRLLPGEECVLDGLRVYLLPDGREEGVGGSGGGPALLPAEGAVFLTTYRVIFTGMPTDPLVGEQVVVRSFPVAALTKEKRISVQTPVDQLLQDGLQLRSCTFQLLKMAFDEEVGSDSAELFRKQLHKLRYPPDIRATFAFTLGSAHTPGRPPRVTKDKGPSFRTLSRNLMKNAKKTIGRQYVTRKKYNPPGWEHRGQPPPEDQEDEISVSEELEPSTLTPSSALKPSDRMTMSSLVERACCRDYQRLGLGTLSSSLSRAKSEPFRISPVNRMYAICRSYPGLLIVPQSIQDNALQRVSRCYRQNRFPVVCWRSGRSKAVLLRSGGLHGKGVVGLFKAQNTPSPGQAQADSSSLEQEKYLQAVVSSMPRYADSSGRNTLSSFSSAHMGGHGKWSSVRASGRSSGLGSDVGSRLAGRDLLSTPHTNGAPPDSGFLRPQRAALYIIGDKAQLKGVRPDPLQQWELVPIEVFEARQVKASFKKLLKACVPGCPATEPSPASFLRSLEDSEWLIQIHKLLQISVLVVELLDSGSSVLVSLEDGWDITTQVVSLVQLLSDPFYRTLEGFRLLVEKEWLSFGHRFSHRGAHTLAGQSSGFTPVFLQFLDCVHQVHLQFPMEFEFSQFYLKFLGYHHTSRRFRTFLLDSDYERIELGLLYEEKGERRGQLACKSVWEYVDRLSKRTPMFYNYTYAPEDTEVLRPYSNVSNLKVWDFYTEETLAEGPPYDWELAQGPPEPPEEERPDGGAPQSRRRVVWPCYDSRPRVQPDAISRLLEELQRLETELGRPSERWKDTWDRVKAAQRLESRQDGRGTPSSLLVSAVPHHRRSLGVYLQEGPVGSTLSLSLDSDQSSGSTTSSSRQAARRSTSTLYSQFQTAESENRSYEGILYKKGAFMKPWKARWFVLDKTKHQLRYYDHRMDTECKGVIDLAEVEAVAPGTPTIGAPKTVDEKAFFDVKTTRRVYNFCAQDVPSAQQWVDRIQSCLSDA

TMT signal-to-noise ratio [1]: 2426.62 | TMT signal-to-noise ratio [2]: 618.49 | TMT signal-to-noise ratio [3]: 71.1304 | TMT signal-to-noise ratio [4]: 302.865
Substance: adipsin
